Legend:
ToxN (ToxNEc) [1] = target: T1, ToxN (ToxNEc) (Escherichia coli strain 680, UniProt PDB:7D8O_1 1-187); test: ITC; one-site fit; ITC: 50 mM KH2PO4 pH 7, 100 mM KCl, 15°C; 2-5 uM RNA in cell, 35-50 uM ToxN in syringe; settings: protein: recombinant, tags: N-terminal His6 (pCold II)
ToxN (ToxNEc) [2] = target: T1, ToxN (ToxNEc); test: ITC; no appreciable heat change; ITC: 50 mM KH2PO4 pH 7, 100 mM KCl, 15°C; 2-5 uM RNA in cell, 35-50 uM ToxN in syringe; settings: protein: recombinant; tags: N-terminal His6 (pCold II); pseudoknot

GGAGGUGAUUUGCUACCUUUAAGUGCAGCUAGAA (structured_RNA) [Δ5'-ToxI]
Kd (ToxN (ToxNEc) [1]; pseudoknot with 3' single-stranded overhang): 47.3 ± 7.4 nM

GGAGGUGAUUUGCUACCUUUAAGUGCA (structured_RNA) [27mer (core pseudoknot)]
binding result (ToxN (ToxNEc) [2]): no binding

GGAUUCAGGUGAUUUGCUACCUUUAAGUGCA (structured_RNA) [Δ3'-ToxI]
Kd (ToxN (ToxNEc) [1]; pseudoknot with 5' single-stranded overhang): 243 ± 55 nM
